The values that follow come from patent US20210332110A1 (ROCKEFELLER UNIVERSITY, published 2021).

The target in the assay is Spike (S) protein of authentic SARS-CoV-2, strain USA-WA1/2020 (SARS-CoV-2, UniProt P0DTC2 14-1273). Kind of assay: cell-based or functional assay.

B1: C121 (antibody, V domains shown)
VH: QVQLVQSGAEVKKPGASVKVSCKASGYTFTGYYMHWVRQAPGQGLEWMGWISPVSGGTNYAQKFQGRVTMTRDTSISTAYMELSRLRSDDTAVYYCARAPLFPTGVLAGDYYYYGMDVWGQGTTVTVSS
VL: QSALTQPASVSGSPGQSITISCTGTSSDVGSYNLVSWYQQHPGKAPKLMIYEGSKRPSGVSNRFSGSKSGNTASLTISGLQAEDEADYYCCSYAGSSTLVFGGGTKLTVL
For B1, the “IC50, neutralization of authentic SARS-CoV-2” value was 1.64 ng/mL.

B2: C144 (antibody, V domains shown)
VH: EVQLVESGGGLIQPGGSLRLSCAASGFTVSNNYMSWVRQAPGKGLEWVSVIYSGGSTYYADSVKGRFTISRDKSKNTLYLQMNRLRAEDTAVYYCAREGEVEGYNDFWSGYSRDRYYFDYWGQGTLVTVSS
VL: QSALTQPASVSGSPGQSITISCTGTSSDVGGYNYVSWYQQHPGKAPKLMIYDVSNRPSGVSNRFSGSKSGNTASLTISGLQAEDEADYYCSSYTSSSTRVFGTGTKVTVL
As for B2, the “IC50, neutralization of authentic SARS-CoV-2” value was 2.55 ng/mL.
